Test [1] concerns the target AgsA:His-DD, hexa-histidine tagged double deletion construct of AgsA (Salmonella enterica serovar typhimurium LT2). The test is described as follows: SEC; analytical SEC, Superose 6 10/300, 20 mM Tris, 50 mM NaCl, pH 7.5, calibrated with molecular weight markers; oligomeric state in solution.
For test [2], the target named is AgsA:DD, double deletion AgsA lacking 11 residues at the N-terminus and 9 residues at the C-terminus, tagless (Salmonella enterica serovar typhimurium LT2). Described as above.
Test [3] has the same target. The test is described as follows: crystal structure; AgsA:DD; 30% polypropylene glycol 400, 0.1 M NaCl, 20 °C; space group R32, 3 dimers in the asymmetric unit, 7.5 Å.
The target of test [4] is AgsA:DelC, AgsA lacking 9 residues at the C-terminus, tagless (Salmonella enterica serovar typhimurium LT2). The test can be described thus: SEC; analytical SEC, Superose 6 10/300, 20 mM Tris, 50 mM NaCl, pH 7.5, calibrated with molecular weight markers; oligomeric state in solution.
Test [5] shares this target. The test is described as follows: crystal structure; AgsA:DelC; 30% pentaerythritol propoxylate (5/4 PO/OH), 0.1 M MES pH 6.0, 30% glycerol, 20 °C; space group I23, a dimer in the asymmetric unit, 4.1 Å.
Test [6] deals with core ACD fragment of AgsA:His-DD (degraded fragment in the crystal, residues 35-147) (Salmonella enterica serovar typhimurium LT2). The test is described as follows: crystal structure; AgsA:His-DD degraded in the drop; 25% pentaerythritol propoxylate (5/4 PO/OH), 0.1 M MES pH 6.0, 20% MPD, 20 °C; space group P4(1)2(1)2, 2.0 Å.
In test [7] the target is Aggregation Suppressing Protein A (AgsA) wild type, tagless (Salmonella enterica serovar typhimurium LT2). The test is described as follows: SEC-MALS; separated 18-mer fraction of the wild type after size exclusion chromatography; Superdex 200 10/300, 20 mM Tris, 50 mM NaCl, pH 7.5.
The target is the same in test [8]. The test can be described thus: SEC-MALS; unseparated wild type protein; Superose 6 10/300, 20 mM Tris, 200 mM NaCl, pH 8.0; about 100 uL of 2 mg/mL injected.
Test [9] shares this target. The test can be described thus: SEC-MALS; separated 24-mer fraction of the wild type after size exclusion chromatography; Superdex 200 10/300, 20 mM Tris, 50 mM NaCl, pH 7.5. For orientation: Size exclusion chromatography separates by hydrodynamic size, large species first.

Where “and” joins values, the source holds several entries; their conditions need not be identical. Identical values can stand only once.

In test [1], “AgsA:His-DD, hexa-histidine tagged double deletion construct of AgsA (domain or fragment)” showed a stoichiometry N of 24.

Take “AgsA:DD, double deletion AgsA lacking 11 residues at the N-terminus and 9 residues at the C-terminus, tagless (domain or fragment)”: the stoichiometry N in test [2] and in [3] was 18 in each case.

On to “AgsA:DelC, AgsA lacking 9 residues at the C-terminus, tagless (domain or fragment)”, for which the stoichiometry N in test [4] and in test [5] was 24 in each case.

Regarding “core ACD fragment of AgsA:His-DD (degraded fragment in the crystal, residues 35-147) (domain or fragment)”, the stoichiometry N in test [6] is 2.

For the substance “Aggregation Suppressing Protein A (AgsA) wild type, tagless (natural protein)”, the stoichiometry N in test [7] was 18; in test [8], 18 and 24; in [9], 18 and 24.

The stoichiometry N is the number of molecules, sites or subunits per partner or assembly.

Values taken from publication PMC4823740.
